# Target: PD-1 Ig fusion protein (extracellular region of human PD-1, aa 1 to 152, fused to the Fc fragment of human IgG1) (human) (UniProt Q15116)
# Test: SPR (Biacore), 1:1 Langmuir model, PD-L2 Ig over immobilised PD-1 Ig; bivalent analyte, filing calls it most likely an avidity value
# Chain of PD-1 Ig fusion protein (extracellular region of human PD-1, aa 1 to 152, fused to the Fc fragment of human IgG1) (human) (Q15116 other isoform, or with tags, fused parts or gaps limits assumed, form in doubt): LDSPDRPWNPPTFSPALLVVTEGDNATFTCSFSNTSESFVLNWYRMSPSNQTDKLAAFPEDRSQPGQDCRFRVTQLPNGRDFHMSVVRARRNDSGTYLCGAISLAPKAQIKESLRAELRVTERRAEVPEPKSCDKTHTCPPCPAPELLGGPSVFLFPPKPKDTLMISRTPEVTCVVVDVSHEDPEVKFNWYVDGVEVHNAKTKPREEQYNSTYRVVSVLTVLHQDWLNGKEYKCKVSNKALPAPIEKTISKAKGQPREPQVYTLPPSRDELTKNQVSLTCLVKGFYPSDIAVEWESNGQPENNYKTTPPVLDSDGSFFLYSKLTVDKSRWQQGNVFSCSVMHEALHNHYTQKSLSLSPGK
substance,measurement,value
PD-L2 Ig fusion protein (extracellular portion of human PD-L2 fused to the Fc fragment of human IgG1) (from UniProt Q9BQ51 20-220) (Fc fusion),Kd,9.97 nM

# Reference: patent US20120039906A1
